Our source for the Kd values is PMC11685794 (Nature Communications, 2024).

The labels stand for the following.
B1: CD163 SRCR 1-5 (residues 42-578) (domain or fragment)
chain: SSLGGTDKELRLVDGENKCSGRVEVKVQEEWGTVCNNGWSMEAVSVICNQLGCPTAIKAPGWANSSAGSGRIWMDHVSCRGNESALWDCKHDGWGKHSNCTHQQDAGVTCSDGSNLEMRLTRGGNMCSGRIEIKFQGRWGTVCDDNFNIDHASVICRQLECGSAVSFSGSSNFGEGSGPIWFDDLICNGNESALWNCKHQGWGKHNCDHAEDAGVICSKGADLSLRLVDGVTECSGRLEVRFQGEWGTICDDGWDSYDAAVACKQLGCPTAVTAIGRVNASKGFGHIWLDSVSCQGHEPAIWQCKHHEWGKHYCNHNEDAGVTCSDGSDLELRLRGGGSRCAGTVEVEIQRLLGKVCDRGWGLKEADVVCRQLGCGSALKTSYQVYSKIQATNTWLFLSSCNGNETSLWDCKNWQWGGLTCDHYEEAKITCSAHREPRLVGGDIPCSGRVEVKHGDTWGSICDSDFSLEAASVLCRELQCGTVVSILGGAHFGEGNGQIWAEEFQCEGHESHLSLCPVAPRPEGTCSHSRDVGVVCS

The target of test [1] is haptoglobin-hemoglobin complex, Hp(1-1)Hb (αβHb bound to dimeric Hp1-1) (human, UniProt P00738-2;P00738;P69905;P68871). Put plainly: SPR.
Test [2] concerns the target B1. Put plainly: SPR. (In general: In SPR one partner is held on a chip, and binding of the other changes the refractive index at the surface.)

In general, Kd refers to the constant that tells how readily two partners part at equilibrium. Low values mean tighter binding, high ones weaker binding.

For the molecule B1, in test [1], the affinity, expressed as Kd, was 0.766 µM.

B2: hemoglobin (Hb) (complex)
chain 1: not shown
chain 2: not shown
Regarding B2, in test [2], the Kd was 43.8 µM.
